# In patent publication US20250340659A1 (PETMEDIX, published 2025):
# T1: canine OX40L, full length membrane form, expressed on HEK293 cells (canine)
# T1 construct: also called OX40L expressing HEK; HEK OX40L cells
# T1 chain: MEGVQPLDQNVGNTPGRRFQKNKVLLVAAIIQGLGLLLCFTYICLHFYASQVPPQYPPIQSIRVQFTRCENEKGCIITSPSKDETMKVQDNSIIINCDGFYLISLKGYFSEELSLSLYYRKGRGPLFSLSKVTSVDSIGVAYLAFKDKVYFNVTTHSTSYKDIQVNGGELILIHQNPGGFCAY
# T2: recombinant canine OX40L ECD-TNCc-HIS protein (canine)
# T2 construct: also called Trimeric OX40L probe (HIS tag); trimeric canine OX40L
# T2 chain: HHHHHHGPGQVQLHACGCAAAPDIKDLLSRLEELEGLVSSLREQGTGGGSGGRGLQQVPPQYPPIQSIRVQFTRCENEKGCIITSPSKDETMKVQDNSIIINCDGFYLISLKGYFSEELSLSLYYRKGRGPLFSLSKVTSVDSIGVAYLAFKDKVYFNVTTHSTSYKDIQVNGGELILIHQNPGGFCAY
# Legend:
# [1] = molecular target: T1, canine OX40L, full length membrane …; test: flow cytometry, OX40L HEK minus WT HEK
# Method: (§1) CHO supernatants diluted in FACS buffer (PBS containing 3% FBS) at 1, 5 or 10 μg/ml were used to screen for their binding capacity to canine OX40L using a cell-based assay. In brief, HEK293 or MEF cells (or any other commonly used cell lines) expressing canine OX40L at the cell surface are incubated with 100 μll of FACS buffer containing the candidate antibody for 30′ on ice. Cells are washed with 150 μl FACS buffer followed by centrifugation at 300 g for 3 min. The cell pellet is resuspended in FACS buffer containing a 1:1000 dilution of a fluorescently labelled secondary antibody recognising the canine Fc region of the test antibody for 30 min in the dark, followed by washing with 150 μl FACS buffer. Cells are resuspended in FACS buffer and flow cytometry performed using either a […] cytometer, followed by data analysis using FlowJo (FIG. 6 and Table 4).
# [2] = molecular target: T1, canine OX40L, full length membrane …; test: cell-based or functional assay
# [3] = molecular target: T1, canine OX40L, full length membrane …; test: flow cytometry
# Method: as §1
# [4] = molecular target: T2, recombinant canine OX40L ECD-TNCc-HIS …; test: SPR Koff (kd2)
# Method: (§2) Affinity (Kd) of OX40L antibodies is measured by SPR, using a recombinant canine OX40L ECD-TNCc-HIS protein (Seq ID 811) as the capturing agent (FIG. 5B).
# (§3) Functional affinity is determined using a Biakore 8K (Cytiva). in brief, purified OX40L ECD-TNCc-HIS protein is covalently bound at low density to the surface of a CM5 sensor chip (Cytiva) by amine coupling, using the manufacturer's recommended protocol. Candidate antibodies are subsequently passed across the chip surface at a range of concentrations and affinity determined using the dedicated software (Biacore Insight Evaluation Software). Curves were fitted using a bivalent analyte binding model.
# [5] = molecular target: T2, recombinant canine OX40L ECD-TNCc-HIS …; test: SPR Koff (kd1)
# Method: as §2, §3
# [6] = molecular target: T2, recombinant canine OX40L ECD-TNCc-HIS …; test: SPR KD1, bivalent analyte model
# Method: as §2, §3
Binder,GEO mean difference [1],% Signal Inhibition Average [2],% Signal Inhibition Rep1 [2],% Signal Inhibition Rep2 [2],% Signal Inhibition Rep3 [2],GEO mean OX40L expressing HEK [3],koff [4],koff [5],Kd [6]
"PMX098 (antibody, V domains shown) VH: EVQLVESGGDLVKPGGSLRLSCVASGFTFNTYHMNWVRQAPGKGLHWVAFINSGGSGTSYADTVKGRFTISRDYAKNTLYLQMNSLRAEDTAVYYCASGSIWTHFDYWGQGTLVTVSS VL: SYVLTQLPSVSLTLRQTAHITCGGDIIGSKSVYWYQQKLGQAPVLIIYRDNNRPTGIPERFSGASSGNTATLTISGALAEDEADYYCQVWDSSTQAMFGGGTHLTVL",–,45%,40.4%,55%,39.8%,–,1.03 s⁻¹,0.00147 s⁻¹,14.1 nM
"PMX104 (antibody, V domains shown) VH: EVQLVESGGDLVRPGGSLRLSCVASGFTFSNYHMSWVRQAPGKGLQWVAFINSGGTSTTYADAVRGRFTTSRDYAKNTLYLQMNSLRAEDTAVYYCTSGSIWTHFDYWGQGTLVTVSS VL: SFVLTQLPSVSVTLRQTARITCGGDIIGSKSVYWFQQKLGQAPILIIYRDDNRPTGIPERFSGASSGNTATLIISGALAEDEAHYYCQVWDSSSKAMFGGGTHLTVL",–,31%,31%,28.1%,33.9%,–,1.23 s⁻¹,0.00174 s⁻¹,17.6 nM
"PMX097 (antibody, V domains shown, also called PMX97) VH: EVQLVESGGDLVRPGGSLRLSCVASGITFSSYHMSWVRQAPGKGLQWVALINSGGSSITYADVVRGRFTISRDYAKNTLYLQMNSLRAEDTAVYYCASGSIWTHFDYWGQGTRVTVSS VL: SFVLTQLPSVSVTLRQTARITCGGDIIGSKNVYWYQQRLGQAPVLIIYRDSNRPTGIPERFSGASSGNTATLTISGALAEDEADYYCQVWDNSNKAMFGGGTHLTVL",–,60.8%,56.1%,73.1%,53.2%,–,0.744 s⁻¹,7.16e-05 s⁻¹,0.492 nM
"PMX049 (antibody, V domains shown, also called PMX49) VH: EVQLVESGGDLVKPGGSLRLSCVASGFTFNNYEMYWVRQAPGKGLEWVARIYESGSTTFSAEAVTGRFTISRDNAKNMVYLQMNSLRAEDTAVYYCASASSSSWRFDYWGQGTLVTVSS VL: SYVLTQLPSVSVTLGQTARITCGGDSIGRKNVCWFQQRLGQAPELIIYDDRSRPSGIPERFSGANSGNTATLTISGALAEDEADYYCQVWDSSTGVFGGGTHLTVL",3.48e+06,84.7%,84.6%,79.3%,90.1%,3.5e+06,22 s⁻¹,0.00211 s⁻¹,15.6 nM
"PMX037 (antibody, V domains shown, also called PMX37) VH: EVQLLESGGDLVKPGGSLRLSCVASGFTFSNYEMYWVRQAPGKGLEWVARFYESGSTTYSAEAVPGRFTISRDNAKNMAYLQMNSLRAEDTAVYYCASASSSSWRFDYWGQGTLVTVSS VL: SYVLTQLPSVSVTLGQTARITCGGDSIGSKNVYWFQQKLGQAPVLIIYDDRSRPSGIPERFSGANSGNTATLTISGALAEDEADYYCQVWDSSTGVFGGGTHLTVL",1.39e+06,78.4%,85.7%,79.8%,69.8%,1.42e+06,0.000862 s⁻¹,0.0183 s⁻¹,308 nM
"PMX025 (antibody, V domains shown, also called PMX25) VH: EVHLVESGGDLVKPGGSLRLSCVASGFTFSSYHMSWVRQAPGKGLQWVAFINAGEISTNYADAVKGRFTISRDNAKNILYLQMNSLRAEDTAVYYCASGHIWIRPFDYWGQGTLVTVSS VL: SYVLTQLPSMSVTLRQTARITCEGDSIGRKRVNWYQQKLGQVPVLIIYDDDSRPSGIPERFSGANSGNTATLTISGALAEDEAEYYCQVWDSSNNWVFGEGTQLTVL",2.81e+06,72.6%,87.9%,61.7%,68.3%,2.83e+06,0.00169 s⁻¹,0.0129 s⁻¹,195 nM
"PMX027 (antibody, V domains shown, also called PMX27) VH: EVHLVESGGDLVKPGGSLRLSCVASGFTFSTYHMSWVRQAPGKGLQWVAFINAGEISTNYADAVKGRFTISRDNAKNIFYLQMNSLRAEDTAVYYCATGHIWIRPFDYWGQGTLVTVSS VL: SYVLTQLPSMSVTLRQTARITCEGNSIGRKRVNWYQQKLGQVPVLIIYDDDSRPSGIPERFSGANSGNTATLTISGALAEDEAEYYCQVWDSSNNWVFGEGTQLTVL",1.62e+06,80.4%,72.2%,83.5%,85.5%,1.65e+06,0.000505 s⁻¹,0.0161 s⁻¹,316 nM

# Continued, values first:
GEO mean difference [1],% Signal Inhibition Average [2],% Signal Inhibition Rep1 [2],% Signal Inhibition Rep2 [2],% Signal Inhibition Rep3 [2],GEO mean OX40L expressing HEK [3],koff [4],koff [5],Kd [6],Binder
467000,71.6%,97.5%,54.4%,62.9%,471000,–,–,–,"PMX292 (antibody, V domains shown) VH: AVQLVESGGDLVRPGGSLRLSCVASGFTFSNFDMYWVRQAPGRGLQWVATISYDGFNTYSTDTVRGRFTISRDNARNTVYLQMNSLRVEDTAVFYCTARRFGLGYWGQGTLVTVSS VL: DIFMAQTPPSLSVSPRETASISCKASQSLLHSDGNTYLDWYLQKPGQSPQLLIYLVSNRFPGVSDRFSGSGSGTGFTLRISRVEASDTGVYYCGQGTQLPYTFSQGTKLEIK"
643000,38.9%,44.2%,37.4%,35.2%,647000,–,–,–,"PMX111 (antibody, V domains shown) VH: EVQLVESGGDLVRPGGSLRLSCVASGFTFSSYHMNWVRQAPGKGLQWVAFINSGASSATYADVVRGRFTISRDYAKNTLYLQMNSLRAEDTAVYYCASGSIWTHFDFWGQGTLVTVSS VL: SFVLTQLPSVSVTLRQTARITCGGDSVGSKSVYWYQQKLGQAPVLIIYRDSNRPTGIPERFSGASSGNTATLTISGALAEDEADYYCQVWDNSNKAMFGGGTHLTVL"
629000,53.3%,67.9%,69.5%,22.5%,633000,–,–,–,"PMX109 (antibody, V domains shown) VH: EVQLVESGGDLVRPGGSLRLSCVASGFTFTNYHMSWVRQAPGKGLQWVAFINSGGSSTTYTDVVRGRFTISRDYAKNTLYLQMNSLTAEDTAVYYCASGSIWTHFDHWGQGTLVTVSS VL: SFVLTQLPSVSVTLRQTARITCGGDSVGSKSVYWYQQKLGQAPVLIIYRDSNRPTGIPERFSGASSGNTATLTISGALAEDEADYYCQVWDNSNKAIFGGGTHLTVL"
607000,82.2%,95.6%,89.8%,61.3%,611000,–,–,–,"PMX108 (antibody, V domains shown) VH: EVQLVESGGDLVRPGGSLRLSCVASGFTFTNYHMSWVRQAPGKGLQWVAFINSGGSSTTYTDVVRGRFTISRDYAKNTLYLQMNSLTAEDTAVYYCASGAIWTHFDHWGQGTLVTVSS VL: SFVLTQLPSVSVTLRQTARITCGGDSVGSKSVYWYQQKLGQAPVLIIYRDSNRPTGIPERFSGASSGNTATLTISGALAEDEADYYCQVWDNSNKAIFGGGTHLTVL"
459000,73.3%,95.9%,70.3%,53.6%,463000,–,–,–,"PMX291 (antibody, V domains shown) VH: EVQLVESGGDLLKPGGSLRLSCVASGFPFRNYDMTWVRQAPGKGLQWVAAIHYDGSNTYYTDAVKGRFTISRDNARNTVFLQMNSLRAEDTAVYYCAKKFNNYRPFDYWGQGTLVTVSS VL: DIVMTQTPPSLSVSPRETPSISCKASQSLLRSDGNTYLEWYLQKPGQSPQLLIYLVSNRFTGVSDRFSGSGSGTDFTLRISRVEANDAGVYYCGQGTQLPWTFGAGTKVELK"
